Data from publication PMC11533276, “Critical role of ROCK1 in AD pathogenesis via controlling lysosomal biogenesis and acidification” (Translational Neurodegeneration, 2024).

Target: T1, TFEB (purified protein coupled to the SPR chip) (UniProt P19484 1-476)
T1 chain: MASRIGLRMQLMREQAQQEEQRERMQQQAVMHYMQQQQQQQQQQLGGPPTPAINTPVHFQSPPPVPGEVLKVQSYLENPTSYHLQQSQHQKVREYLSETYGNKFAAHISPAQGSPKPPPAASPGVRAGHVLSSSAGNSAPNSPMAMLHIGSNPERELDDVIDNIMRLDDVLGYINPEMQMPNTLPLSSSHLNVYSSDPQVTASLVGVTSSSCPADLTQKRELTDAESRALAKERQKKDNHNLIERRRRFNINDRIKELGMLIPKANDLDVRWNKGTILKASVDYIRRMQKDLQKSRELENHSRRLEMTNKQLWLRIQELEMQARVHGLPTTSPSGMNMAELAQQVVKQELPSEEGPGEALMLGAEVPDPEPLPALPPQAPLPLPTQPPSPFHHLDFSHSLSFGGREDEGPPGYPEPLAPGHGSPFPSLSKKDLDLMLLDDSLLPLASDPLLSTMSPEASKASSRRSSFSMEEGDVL
Assay: SPR; TFEB immobilised on a CM5 chip by amine coupling; ROCK1 injected at 312.5 to 5000 nM for 90 s; Biacore T200
Details: both partners purified

Kd: 1.61 µM
B1: ROCK1 (protein injected in SPR) (enzyme)
chain: STGDSFETRFEKMDNLLRDPKSEVNSDCLLDGLDALVYDLDFPALRKNKNIDNFLSRYKDTINKIRDLRMKAEDYEVVKVIGRGAFGEVQLVRHKSTRKVYAMKLLSKFEMIKRSDSAFFWEERDIMAFANSPWVVQLFYAFQDDRYLYMVMEYMPGGDLVNLMSNYDVPEKWARFYTAEVVLALDAIHSMGFIHRDVKPDNMLLDKSGHLKLADFGTCMKMNKEGMVRCDTAVGTPDYISPEVLKSQGGDGYYGRECDWWSVGVFLYEMLVGDTPFYADSLVGTYSKIMNHKNSLTFPDDNDISKEAKNLICAFLTDREVRLGRNGVEEIKRHLFFKNDQWAWETLRDTVAPVVPDLSSDIDTSNFDDLEEDKGEEETFPIPKAFVGNQLPFVGFTYYSNRRYLSSANPNDNRTSSNADKSLQESLQKTIYKLEEQLHNEMQLKDEMEQKCRTSNIKLDKIMKELDEEGNQRRNLESTVSQIEKEKMLLQHRINEYQRKAEQENEKRRNVENEVSTLKDQLEDLKKVSQNSQLANEKLSQLQKQLEEANDLLRTESDTAVRLRKSHTEMSKSISQLESLNRELQERNRILENSKSQTDKDYYQLQAILEAERRDRGHDSEMIGDLQARITSLQEEVKHLKHNLEKVEGERKEAQDMLNHSEKEKNNLEIDLNYKLKSLQQRLEQEVNEHKVTKARLTDKHQSIEEAKSVAMCEMEKKLKEEREAREKAENRVVQIEKQCSMLDVDLKQSQQKLEHLTGNKERMEDEVKNLTLQLEQESNKRLLLQNELKTQAFEADNLKGLEKQMKQEINTLLEAKRLLEFELAQLTKQYRGNEGQMRELQDQLEAEQYFSTLYKTQVKELKEEIEEKNRENLKKIQELQNEKETLATQLDLAETKAESEQLARGLLEEQYFELTQESKKAASRNRQEITDKDHTVSRLEEANSMLTKDIEILRRENEELTEKMKKAEEEYKLEKEEEISNLKAAFEKNINTERTLKTQAVNKLAEIMNRKDFKIDRKKANTQDLRKKEKENRKLQLELNQEREKFNQMVVKHQKELNDMQAQLVEECAHRNELQMQLASKESDIEQLRAKLLDLSDSTSVASFPSADETDGNLPESRIEGWLSVPNRGNIKRYGWKKQYVVVSSKKILFYNDEQDKEQSNPSMVLDIDKLFHVRPVTQGDVYRAETEEIPKIFQILYANEGECRKDVEMEPVQQAEKTNFQNHKGHEFIPTLYHFPANCDACAKPLWHVFKPPPALECRRCHVKCHRDHLDKKEDLICPCKVSYDVTSARDMLLLACSQDEQKKWVTHLVKKIPKNPPSGFVRASPRTLSTRSTANQSFRKVVKNTSGKTS
